The labels stand for the following.
B1: sp¦O43396¦TXNL1_HUMAN (protein, UniProt O43396 2-289, looked up)
Thioredoxin-like protein 1: VGVKPVGSDPDFQPELSGAGSRLAVVKFTMRGCGPCLRIAPAFSSMSNKYPQAVFLEVDVHQCQGTAATNNISATPTFLFFRNKVRIDQYQGADAVGLEEKIKQHLENDPGSNEDTDIPKGYMDLMPFINKAGCECLNESDEHGFDNCLRKDTTFLESDCDEQLLITVAFNQPVKLYSMKFQGPDNGQGPKYVKIFINLPRSMDFEEAERSEPTQALELTEDDIKEDGIVPLRYVKFQNVNSVTIFVQSNQGEEETTRISYFTFIGTPVQATNMNDFKRVVGKKGESH
B2: sp¦O75937¦DNJC8_HUMAN (protein, UniProt O75937 2-253, looked up)
DnaJ homolog subfamily C …: AASGESGTSGGGGSTEEAFMTFYSEVKQIEKRDSVLTSKNQIERLTRPGSSYFNLNPFEVLQIDPEVTDEEIKKRFRQLSILVHPDKNQDDADRAQKAFEAVDKAYKLLLDQEQKKRALDVIQAGKEYVEHTVKERKKQLKKEGKPTIVEEDDPELFKQAVYKQTMKLFAELEIKRKEREAKEMHERKRQREEEIEAQEKAKREREWQKNFEESRDGRVDSWRNFQANTKGKKEKKNRTFLRPPKVKMEQRE
B3: sp¦P10599¦THIO_HUMAN (protein, UniProt P10599 2-105, looked up)
Thioredoxin: VKQIESKTAFQEALDAAGDKLVVVDFSATWCGPCKMIKPFFHSLSEKYSNVIFLEVDVDDCQDVASECEVKCMPTFQFFKKGQKVGEFSGANKEKLEATINELV
B4: sp¦P54727¦RD23B_HUMAN (protein, UniProt P54727 1-409, looked up)
UV excision repair protein …: MQVTLKTLQQQTFKIDIDPEETVKALKEKIESEKGKDAFPVAGQKLIYAGKILNDDTALKEYKIDEKNFVVVMVTKPKAVSTPAPATTQQSAPASTTAVTSSTTTTVAQAPTPVPALAPTSTPASITPASATASSEPAPASAAKQEKPAEKPAETPVATSPTATDSTSGDSSRSNLFEDATSALVTGQSYENMVTEIMSMGYEREQVIAALRASFNNPDRAVEYLLMGIPGDRESQAVVDPPQAASTGAPQSSAVAAAAATTTATTTTTSSGGHPLEFLRNQPQFQQMRQIIQQNPSLLPALLQQIGRENPQLLQQISQHQEHFIQMLNEPVQEAGGQGGGGGGGSGGIAEAGSGHMNYIQVTPQEKEAIERLKALGFPEGLVIQAYFACEKNENLAANFLLQQNFDED
B5: sp¦Q8WW12¦PCNP_HUMAN (protein, UniProt Q8WW12 2-178, looked up)
PEST proteolytic …: ADGKAGDEKPEKSQRAGAAGGPEEEAEKPVKTKTVSSSNGGESSSRSAEKRSAEEEAADLPTKPTKISKFGFAIGSQTTKKASAISIKLGSSKPKETVPTLAPKTLSVAAAFNEDEDSEPEEMPPEAKMRMKNIGRDTPTSAGPNSFNKGKHGFSDNQKLWERNIKSHLGNVHDQDN
B6: sp¦Q9BY43¦CHM4A_HUMAN (protein, UniProt Q9BY43 1-222, looked up)
Charged multivesicular body …: MSGLGRLFGKGKKEKGPTPEEAIQKLKETEKILIKKQEFLEQKIQQELQTAKKYGTKNKRAALQALRRKKRFEQQLAQTDGTLSTLEFQREAIENATTNAEVLRTMELAAQSMKKAYQDMDIDKVDELMTDITEQQEVAQQISDAISRPMGFGDDVDEDELLEELEELEQEELAQELLNVGDKEEEPSVKLPSVPSTHLPAGPAPKVDEDEEALKQLAEWVS
B7: sp¦P49458¦SRP09_HUMAN (protein, UniProt P49458 2-86, looked up)
Signal recognition particle 9 …: PQYQTWEEFSRAAEKLYLADPMKARVVLKYRHSDGNLCVKVTDDLVCLVYKTDQAQDVKKIEKFHSQLMRLMVAKEARNVTMETE
B8: sp¦P52209¦6PGD_HUMAN (protein, UniProt P52209 1-483, looked up)
6-phosphogluconate …: MAQADIALIGLAVMGQNLILNMNDHGFVVCAFNRTVSKVDDFLANEAKGTKVVGAQSLKEMVSKLKKPRRIILLVKAGQAVDDFIEKLVPLLDTGDIIIDGGNSEYRDTTRRCRDLKAKGILFVGSGVSGGEEGARYGPSLMPGGNKEAWPHIKTIFQGIAAKVGTGEPCCDWVGDEGAGHFVKMVHNGIEYGDMQLICEAYHLMKDVLGMAQDEMAQAFEDWNKTELDSFLIEITANILKFQDTDGKHLLPKIRDSAGQKGTGKWTAISALEYGVPVTLIGEAVFARCLSSLKDERIQASKKLKGPQKFQFDGDKKSFLEDIRKALYASKIISYAQGFMLLRQAATEFGWTLNYGGIALMWRGGCIIRSVFLGKIKDAFDRNPELQNLLLDDFFKSAVENCQDSWRRAVSTGVQAGIPMPCFTTALSFYDGYRHEMLPASLIQAQRDYFGAHTYELLAKPGQFIHTNWTGHGGTVSSSSYNA
B9: sp¦P04075¦ALDOA_HUMAN (protein, UniProt P04075 2-364, looked up)
Fructose-bisphosphate …: PYQYPALTPEQKKELSDIAHRIVAPGKGILAADESTGSIAKRLQSIGTENTEENRRFYRQLLLTADDRVNPCIGGVILFHETLYQKADDGRPFPQVIKSKGGVVGIKVDKGVVPLAGTNGETTTQGLDGLSERCAQYKKDGADFAKWRCVLKIGEHTPSALAIMENANVLARYASICQQNGIVPIVEPEILPDGDHDLKRCQYVTEKVLAAVYKALSDHHIYLEGTLLKPNMVTPGHACTQKFSHEEIAMATVTALRRTVPPAVTGITFLSGGQSEEEASINLNAINKCPLLKPWALTFSYGRALQASALKAWGGKKENLKAAQEEYVKRALANSLACQGKYTPSGQAGAAASESLFVSNHAY
B10: sp¦Q9HB71¦CYBP_HUMAN (protein, UniProt Q9HB71 2-228, looked up)
Calcyclin-binding protein: ASEELQKDLEEVKVLLEKATRKRVRDALTAEKSKIETEIKNKMQQKSQKKAELLDNEKPAAVVAPITTGYTVKISNYGWDQSDKFVKIYITLTGVHQVPTENVQVHFTERSFDLLVKNLNGKSYSMIVNNLLKPISVEGSSKKVKTDTVLILCRKKVENTRWDYLTQVEKECKEKEKPSYDTETDPSEGLMNVLKKIYEDGDDDMKRTINKAWVESREKQAKGDTEF
B11: sp¦P68104¦EF1A1_HUMAN (protein, UniProt P68104 2-462, looked up)
Elongation factor 1-alpha 1: GKEKTHINIVVIGHVDSGKSTTTGHLIYKCGGIDKRTIEKFEKEAAEMGKGSFKYAWVLDKLKAERERGITIDISLWKFETSKYYVTIIDAPGHRDFIKNMITGTSQADCAVLIVAAGVGEFEAGISKNGQTREHALLAYTLGVKQLIVGVNKMDSTEPPYSQKRYEEIVKEVSTYIKKIGYNPDTVAFVPISGWNGDNMLEPSANMPWFKGWKVTRKDGNASGTTLLEALDCILPPTRPTDKPLRLPLQDVYKIGGIGTVPVGRVETGVLKPGMVVTFAPVNVTTEVKSVEMHHEALSEALPGDNVGFNVKNVSVKDVRRGNVAGDSKNDPPMEAAGFTAQVIILNHPGQISAGYAPVLDCHTAHIACKFAELKEKIDRRSGKKLEDGPKFLKSGDAAIVDMVPGKPMCVESFSDYPPLGRFAVRDMRQTVAVGVIKAVDKKAAGAGKVTKSAQKAQKAK
B12: sp¦O75792¦RNH2A_HUMAN (protein, UniProt O75792 1-299, looked up)
Ribonuclease H2 subunit A: MDLSELERDNTGRCRLSSPVPAVCRKEPCVLGVDEAGRGPVLGPMVYAICYCPLPRLADLEALKVADSKTLLESERERLFAKMEDTDFVGWALDVLSPNLISTSMLGRVKYNLNSLSHDTATGLIQYALDQGVNVTQVFVDTVGMPETYQARLQQSFPGIEVTVKAKADALYPVVSAASICAKVARDQAVKKWQFVEKLQDLDTDYGSGYPNDPKTKAWLKEHVEPVFGFPQFVRFSWRTAQTILEKEAEDVIWEDSASENQEGLRKITSYFLNEGSQARPRSSHRYFLERGLESATSL

One assay has as its system human HL60 cells. Nature of the assay: SWATH-MS proteomics, differential protein representation, akirin2 KO vs WT HL60 cells. The conditions noted are these: Over-represented in KO; KO vs WT HL60 cells. The assay is classed as cell-based. How it is done:
Total proteins were extracted from WT and akirin2 KO HL60 cells using the AllPrep DNA/RNA/Protein Mini Kit (Qiagen) and protein concentration was determined using the BCA Protein Assay with BSA (Sigma–Aldrich) as standard. Protein extracts (150 µg per sample, n=3 biological replicates) from each WT and KO cells were trypsin digested using the FASP Protein Digestion Kit (Expedeon Ltd., Abcam, Cambridge, U.K.) and sequencing grade trypsin (Promega, Madison, WI, U.S.A.) following manufacturer’s recommendations. The resulting peptides were finally desalted on to OMIX Pipette tips C18 (Agilent Technologies, Santa Clara, CA, U.S.A.), dried down and stored at −20 °C until mass spectrometry analysis. […] Three micrograms of each protein digest from the three biological replicates of WT and akirin2 KO HL60 cells were used for the generation of the reference spectral ion library as part of the SWATH-MS analysis.
Peptides were eluted in a 120-min gradient from 5 to 30% solvent B in solvent A followed by 15-min gradient from 30 to 60% solvent B in solvent A (solvent A: 0.1% formic acid in water, solvent B: 0.1% formic acid in acetonitrile) and directly injected into the mass spectrometer for analysis. For IDA experiments, the mass spectrometer was set to scanning full spectra (350–1400 m/z) using 250 ms accumulation time per spectrum, followed by up to 50 MS/MS scans (100–1500 m/z). Candidate ions with a charge state between +2 and +5 counts per second above a minimum threshold of 100 were isolated for fragmentation. One MS/MS spectrum was collected for 100 ms, before adding those precursor ions to the exclusion list for 15 s (mass spectrometer operated by Analyst TF 1.6, AB Sciex). Dynamic background subtraction was turned off. MS/MS analyses were recorded in high-sensitivity mode with rolling collision energy on and a collision energy spread of 5. For SWATH quantitative analysis, six independent samples (three replicates from WT and akirin2 KO HL60 cells, 5 µg each) were subjected to the cyclic DIA of mass spectra using the SWATH variable windows calculator (V 1.0, AB Sciex) and the SWATH acquisition method editor (AB Sciex), similar to established methods. […] For these experiments, a 50-ms survey scan (350–1400 m/z) was acquired at the beginning of each cycle, and SWATH–MS/MS spectra were collected from 100–1500 m/z for 70 ms at high-sensitivity mode, resulting in a cycle time of 3.6 s. Collision energy for each window was determined according to the calculation for a charge +2 ion-centered upon the window with a collision energy spread of 15. To create a spectral library of all the detectable peptides in the samples, the IDA MS raw files were combined and subjected to database search in unison using ProteinPilot software v. 5.0.1 (AB Sciex) with the Paragon algorithm. […] The detected protein threshold was set at 0.05. An independent false discovery rate (FDR) analysis, using the target–decoy approach provided by Protein Pilot (AB Sciex; https://sciex.com/products/software/proteinpilot-software), was used to assess the quality of identifications. Positive identifications were considered when identified proteins reached 1% of global FDR. […] Global normalization was performed according to the Total Area Sums (TAS) of all detected proteins in the samples. […] Heatmaps were prepared using the Heatmapper (http://www.heatmapper.ca/expression/) with average linkage and Euclidean distance measurement method.
Regarding B1, the “Fold Change” value turned out to be 1.348 and the “Log (Fold Change)” value is listed as 0.1296.

For the molecule B2, the “Fold Change” value was 1.352 and the “Log (Fold Change)” value came to 0.1309.

Consider B3, for which the “Fold Change” value was 1.394 and the “Log (Fold Change)” value was 0.1444.

Turning to B4, the “Fold Change” value stood at 1.363 and the “Log (Fold Change)” value stood at 0.1346.

Regarding B5, the “Fold Change” value was determined as 1.373 and the “Log (Fold Change)” value worked out at 0.1375.

With B6, the “Fold Change” value was 1.396 and the “Log (Fold Change)” value was 0.1447.

In the case of B7, the “Fold Change” value was determined as 1.349 and the “Log (Fold Change)” value came out at 0.1301.

As to B8, the “Fold Change” value amounted to 1.367 and the “Log (Fold Change)” value was 0.1359.

The same assay, now with this note: SWATH-MS, akirin2 KO vs WT HL60 cells; over-represented in KO.
As for B9, the “Fold Change” value is 1.436 and the “Log (Fold Change)” value is given as 0.1572.

Turning to B10, the “Fold Change” value is 1.407 and the “Log (Fold Change)” value is 0.1482.

Regarding B11, the “Fold Change” value was 1.443 and the “Log (Fold Change)” value was 0.1593.

With B12, the “Fold Change” value amounted to 1.47 and the “Log (Fold Change)” value stood at 0.1673.
